Reference: the Human Domainome abundance scans (Beltran et al. 2025)

B1: Proto-oncogene vav, residues 782 to 842; numbered along this chain, P15498 (parent)
chain: KYFGTAKARYDFCARDRSELSLKEGDIIKILNKKGQQGWWRGEIYGRVGWFPANYVEEDYS

Variants of: B1
Assay: abundance fitness (aPCA) (normalised: wild type 0, dead -1); higher = more abundant; growth selection in yeast, the domain comes from the species named
Conditions: Homo sapiens

Abundance fitness, by site and new letter:
F12: E -1.01, V -0.763, P -1.13, W -0.114, I -0.536, G -0.977, Q -0.553, S -0.886, M -0.827, C -0.83, R -0.365, N -0.671, H -0.029, K -1.01, T -0.952, L -0.813, A -0.537
A14: K -0.692, Q -0.541, M -0.931, S -0.237, P -0.355, E -0.873, F -0.804, H -0.562, N -0.742, V -0.889, T -0.54, C -0.83, L -1.03, Y -0.328, W -0.649
T5: L -0.099, I -0.248, V -0.159, K -0.468, H -0.094, S -0.179, M -0.209, P -0.401, W -0.178, R -0.209, Y -0.064
R9: F 0.05, C -0.356, N -0.282, I -0.296, Y -0.821, G -0.75, T -0.086, M -0.027, P -0.972, H -0.505, E -0.614, W -0.737, S -0.34, K 0.072
C13: D -0.28, K -0.201, H -0.131, E 0.12, Y -0.198, T 0.146, S 0.028, P -0.178, N 0.123, A -0.063, G -0.285, W -0.087, V 0.1, L -0.058, F -0.006, R 0.025, I -0.108, M -0.119, Q 0.098
Y10: L -0.122, W -0.116, E -0.13, M 0.098, S 0.044, D -0.305, Q 0.107, G -0.177, H 0.079, A 0.029, C -0.338, P -0.847, K 0.047, I -0.115, V -0.184, N -0.393
R15: G -0.316, D -0.466, M -0.507, C -0.444, N -0.411, Q -0.26, F -0.78, K -0.169, A -0.418, P -0.925, H -0.293
A8: F -0.785, P -0.606, Y -0.708, D -0.864, Q -0.956, M -0.727, T -0.756, E -0.745, H -0.62, C -0.582, W -1.04, G -0.953, I -0.535, L -0.731, V -0.035, R -0.903
A6: F -0.694, M -0.733, I -0.852, V -0.214, Y -0.264, E -0.904, P -0.832, K -0.725, C -0.115, S -0.654, T -0.883, D -0.679, N -0.905, H -0.677
K7: Q -0.093, N -0.797, S -0.381, I -0.232, L -0.191, H -0.233, P -0.97, E -0.511, Y -0.133, W -0.407, M 0.006, C -0.04, D -0.766, G -0.629, V -0.152, A -0.475
D11: V -0.587, E -0.159, I -0.693, S -0.251, A -0.103, N 0.086, T -0.316, F -0.901, K -0.362, C -0.264, G -0.258, P -0.284, Y -0.441, L -0.607, M -0.35, W -0.715, Q -0.363, H -0.503
